{"source": "paper PMC6161613", "about": "“Lack of correlation between surface expression and currents in epileptogenic AB-calmodulin binding domain Kv7.2 potassium channel mutants” (Channels, 2018)", "target": "T1, Recombinant rat brain calmodulin (rat, UniProt P0DP29 1-149)", "T1 construct": "calmodulin, rat, recombinant; also called CaM; source: E. coli BL21 DE3, purified", "test": "pull-down; purified GST fusion proteins immobilised on GSH-Sepharose 4B beads; CaM (10 μg) added, 45 min, room temperature; 25 mM Hepes, 120 mM KCl, 5 mM NaCl, pH 7.5 with 5 mM EGTA (10 mM in the results text), no Ca2+; anti-CaM Western blot, band intensities quantified (n = 3)", "conditions": "both partners purified", "data": [{"binder": "GST-neurogranin (aa 1-78) (natural protein, neurogranin, aa 1-78, entry NP006167 as printed; also called Nrg; source: E. coli BL21 DE3, purified (GST fusion from pGEX-3X)) MDCCTENACSKPDDDILDIPLDDPGANAAAAKIQASFRGHMARKKIKSGERGRKGPGPGGPGGAGVARGGAGGGPSGD", "values": [{"measurement": "binding result", "value": "binds"}]}]}
